In article PMC4779955:

Target: T1, Lin28A (GST-His6 fusion) (Homo sapiens, UniProt Q9H9Z2 1-209)
T1 sequence: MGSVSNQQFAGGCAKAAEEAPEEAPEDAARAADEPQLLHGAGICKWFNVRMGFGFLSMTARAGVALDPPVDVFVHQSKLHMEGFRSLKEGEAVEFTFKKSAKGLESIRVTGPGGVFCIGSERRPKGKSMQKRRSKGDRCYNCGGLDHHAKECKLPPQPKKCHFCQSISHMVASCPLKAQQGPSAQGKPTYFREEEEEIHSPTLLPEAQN
Experiment: EMSA

B1: Motif1 bubble duplex (dsDNA)
DNA 1: CTTCTGGCGCTGTCCATCACAAGGTGCTGAACCCAG
DNA 2: CTGGGTTCAGCACCATTTTTTGCGCCAGAAG
B1: binds.
